Results as given in publication PMC5570423, “Structural characterisation of TNRC6A nuclear localisation signal in complex with importin-alpha” (PLoS ONE, 2017).

B1: GST-TNRC6A cNLS (residues 1164–1172 of mouse TNRC6A, corresponding to residues 1179–1187 of human TNRC6A isoform 1) (peptide)
chain: SGKKRRRER
notes: TNRC6A classical nuclear localisation signal, mouse residues 1164-1172 = human residues 1179-1187 (isoform 1; 926-934 in isoform 2); the motif is strictly conserved between mouse and human; Cloned into pGEX-6P with overlapping oligonucleotides; also called GST-cNLS; GST-NLS; source: E. coli BL21(DE3), purified
B2: GST-TNRC6A cNLS N-term mutant (1164Ser-Gly1165 substituted to prolines) (peptide)
chain: PPKKRRRER
notes: also called TNRC6A N-term mutant; source: E. coli BL21(DE3), purified
B3: GST-TNRC6A cNLS P3 mutant (Arg1168Lys) (peptide)
chain: SGKKKRRER
notes: also called P3 TNRC6A mutant; source: E. coli BL21(DE3), purified

The binders below were run against Mouse importin-α1 lacking the IBB domain (mImpα1ΔIBB; residues 70–529) (mouse, UniProt P52293 70-529) (assay: ELISA; solid phase plate binding assay, no cross-linking: MaxiSorp plates coated with 25 nM GST-cNLS or GST in PBS, 0.2 mM PMSF, 2 mM DTT; serial dilutions of S-tagged mImpα1ΔIBB, 1 hr at 4°C; detected with S-protein-HRP; apparent Kd, one-site specific binding, duplicates). Conditions: both partners purified.

Point of comparison: SGKKKRKER (source: E. coli BL21(DE3), purified) [GST-TNRC6A cNLS P3, P5 mutant (Arg1168Lys and Arg1170Lys)], Kd 898 nM. Against it:
- B1 — 12-fold lower, 75.6 nM
- B2 — 47-fold lower, 19 nM
- B3 — 2.1-fold higher, 1880 nM
- SGKKRRKER (source: E. coli BL21(DE3), purified) [GST-TNRC6A cNLS P5 mutant (Arg1170 to Lys)] — within 1.5-fold, 1140 nM
